Measured values: patent US20250382334

What was measured:
[1] = target: v2.1 BE-VLP MMLV gag-ABE8e fusion protein (cleavable linker …)
[2] = target: v2.2 BE-VLP MMLV gag-ABE8e fusion protein (cleavable linker VQALVLTQ)
[3] = target: v2.3 BE-VLP MMLV gag-ABE8e fusion protein (cleavable linker […])
[4] = target: v2.4 BE-VLP MMLV gag-ABE8e fusion protein (cleavable linker […])

B1: Moloney murine leukemia virus (MMLV) protease, supplied as wild-type MMLV gag-pro-pol polyprotein (protein)
chain: TLDDQGGQGQEPPPEPRITLKVGGQPVTFLVDTGAQHSVLTQNPGPLSDKSAWVQGATGGKRYRWTTDRKVHLATGKVTHSFLHVPDCPYPLLGRDLLTKLKAQIHFEGSGAQVMGPMGQPLQVL
fraction of cleaved ABE8e versus full-length gag-ABE8e present in purified eVLPs (western blot) [1]: the v2.4 linker is cleaved more efficiently than the v2.1 and v2.2 linkers, but less efficiently than the v2.3 linker | fraction of cleaved ABE8e versus full-length gag-ABE8e present in purified eVLPs (western blot) [2]: the v2.4 linker is cleaved more efficiently than the v2.1 and v2.2 linkers, but less efficiently than the v2.3 linker | fraction of cleaved ABE8e versus full-length gag-ABE8e present in purified eVLPs (western blot) [3]: the v2.4 linker is cleaved more efficiently than the v2.1 and v2.2 linkers, but less efficiently than the v2.3 linker | fraction of cleaved ABE8e versus full-length gag-ABE8e present in purified eVLPs (western blot) [4]: the v2.4 linker is cleaved more efficiently than the v2.1 and v2.2 linkers, but less efficiently than the v2.3 linker
